Test results taken from patent US5494912A, “9-purinyl phosphonic acid derivitives for treating gout” (Merrell Pharmaceuticals Inc., priority 1995, dated 1996).

Key:
[1] = target: T1, purine nucleoside phosphorylase (PNP) (Homo sapiens, UniProt P00491); test: PNP inhibition, coupled xanthine oxidase method of Kalckar, human erythrocyte PNP; type: biochemical; settings: 1 mM inorganic phosphate, 0.1M HEPES pH 7.4, inosine 0.05-0.15 mM as substrate; read-out: Ki (apparent dissociation constant), Human Erythrocytes PNP
T1 construct: Erythrocytes; from tissue; host or cells: erythrocytes
T1 sequence (P00491 1-289): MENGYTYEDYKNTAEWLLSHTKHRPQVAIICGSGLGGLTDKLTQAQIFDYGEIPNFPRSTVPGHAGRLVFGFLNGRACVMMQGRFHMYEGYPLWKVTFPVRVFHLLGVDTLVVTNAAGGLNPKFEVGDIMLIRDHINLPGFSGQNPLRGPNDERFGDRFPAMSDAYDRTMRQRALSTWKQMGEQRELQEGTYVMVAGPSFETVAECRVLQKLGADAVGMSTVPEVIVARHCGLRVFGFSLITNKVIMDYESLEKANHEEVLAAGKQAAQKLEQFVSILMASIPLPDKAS

[2] = target: T2, purine nucleoside phosphorylase (PNP) (Bos taurus, UniProt P55859); test: PNP inhibition, coupled xanthine oxidase method of Kalckar, bovine spleen PNP; type: biochemical
T2 construct: Spleen; from tissue; host or cells: spleen
T2 sequence (P55859 1-289): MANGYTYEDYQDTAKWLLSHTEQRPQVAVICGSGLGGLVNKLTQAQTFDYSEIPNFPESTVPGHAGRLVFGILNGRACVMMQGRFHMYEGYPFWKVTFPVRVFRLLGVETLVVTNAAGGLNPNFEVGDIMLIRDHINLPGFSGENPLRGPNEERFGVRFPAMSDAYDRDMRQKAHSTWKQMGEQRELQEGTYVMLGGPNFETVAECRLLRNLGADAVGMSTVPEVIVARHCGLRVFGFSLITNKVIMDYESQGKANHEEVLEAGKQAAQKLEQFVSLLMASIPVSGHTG

[3] = substrate: OC[C@H]1O[C@@H](n2cnc3c(O)ncnc32)[C@H](O)[C@@H]1O; test: as above; type: biochemical; settings: other: substrate KM for comparison with Ki; pH 7.4
[4] = substrate: OC[C@H]1O[C@@H](n2cnc3c(O)ncnc32)[C@H](O)[C@@H]1O; test: PNP inhibition, coupled xanthine oxidase method of Kalckar, E. coli PNP; type: biochemical; settings: other: substrate KM for comparison with Ki; pH 7.4
purified protein = substrate: OC[C@H]1O[C@@H](n2cnc3c(O)ncnc32)[C@H](O)[C@@H]1O; test: purified protein; settings: other: substrate KM for comparison with Ki; pH 7.4
[5] = substrate: OC[C@H]1O[C@@H](n2cnc3c(O)ncnc32)[C@H](O)[C@@H]1O; test: PNP inhibition, coupled xanthine oxidase method of Kalckar, human erythrocyte PNP; type: biochemical; settings: other: substrate KM for comparison with Ki; pH 7.4

## Nc1nc2c(ncn2Cc2ccccc2C(F)C(F)(F)P(=O)(O)O)c(=O)[nH]1 (stereo not shown) [[2-[2-[(2-amino-1,6-dihydro-6-oxo-9H-purin-9-yl)methyl]phenyl]-1,1,2-trifluoroethyl]phosphonic acid]
[1]
  Ki: 1.3 nM

## Nc1nc2c(ncn2Cc2ccccc2OCCC(F)(F)P(=O)(O)O)c(=O)[nH]1
[2]
  Ki: 250 nM

## Nc1nc2c(ncn2Cc2ccccc2OCP(=O)(O)O)c(=O)[nH]1 [[2-[(2-amino-1,6,dihydro-6-oxo-9H-purin-9yl)methyl]phenoxy]methylphosphonic acid]
[2]
  Ki: 7.5 nM

B1: purine nucleoside phosphorylase (PNP) (Bos taurus) (protein)
chain: MANGYTYEDYQDTAKWLLSHTEQRPQVAVICGSGLGGLVNKLTQAQTFDYSEIPNFPESTVPGHAGRLVFGILNGRACVMMQGRFHMYEGYPFWKVTFPVRVFRLLGVETLVVTNAAGGLNPNFEVGDIMLIRDHINLPGFSGENPLRGPNEERFGVRFPAMSDAYDRDMRQKAHSTWKQMGEQRELQEGTYVMLGGPNFETVAECRLLRNLGADAVGMSTVPEVIVARHCGLRVFGFSLITNKVIMDYESQGKANHEEVLEAGKQAAQKLEQFVSLLMASIPVSGHTG
notes: Spleen; from tissue; host or cells: spleen
[3]
  Km: 30 µM

B2: purine nucleoside phosphorylase (PNP) (Escherichia coli K-12) (protein)
chain: ATPHINAEMGDFADVVLMPGDPLRAKYIAETFLEDAREVNNVRGMLGFTGTYKGRKISVMGHGMGIPSCSIYTKELITDFGVKKIIRVGSCGAVLPHVKLRDVVIGMGACTDSKVNRIRFKDHDFAAIADFDMVRNAVDAAKALGIDARVGNLFSADLFYSPDGEMFDVMEKYGILGVEMEAAGIYGVAAEFGAKALTICTVSDHIRTHEQTTAAERQTTFNDMIKIALESVLLGDKE
[4]
  Km: 80 µM

B3: purine nucleoside phosphorylase (PNP) (Rattus norvegicus) (protein)
chain: MENEFTYEDYQRTAEWLRSHTKHRPQVAVICGSGLGGLTAKLTQPQAFDYNEIPNFPQSTVQGHAGRLVFGFLNGRSCVMMQGRFHMYEGYSLSKVTFPVRVFHLLGVDTLVVTNAAGGLNPKFEVGDIMLIRDHINLPGFCGQNPLRGPNDERFGVRFPAMSDAYDRDMRQKAFNAWKQMGEQRELQEGTYIMSAGPTFETVAESCLLRMLGADAVGMSTVPEVIVARHCGLRVFGFSLITNKVVMDYNNLEKASHQEVLEAGKAAAQKLEQFVSILMESIPPRERAN
Purified protein
  Km: 150 µM

B4: purine nucleoside phosphorylase (PNP) (Homo sapiens) (protein)
chain: MENGYTYEDYKNTAEWLLSHTKHRPQVAIICGSGLGGLTDKLTQAQIFDYGEIPNFPRSTVPGHAGRLVFGFLNGRACVMMQGRFHMYEGYPLWKVTFPVRVFHLLGVDTLVVTNAAGGLNPKFEVGDIMLIRDHINLPGFSGQNPLRGPNDERFGDRFPAMSDAYDRTMRQRALSTWKQMGEQRELQEGTYVMVAGPSFETVAECRVLQKLGADAVGMSTVPEVIVARHCGLRVFGFSLITNKVIMDYESLEKANHEEVLAAGKQAAQKLEQFVSILMASIPLPDKAS
notes: Erythrocytes; from tissue; host or cells: erythrocytes
[5]
  Km: 150 µM
